Results reported in a protein production outcome set (Wang et al. 2014).

Assay: label from the status in PepcDB records

PRRWPILLIFPGSGFIQMTEREAEPIALAFSAQGYQTMVVEYNLLDRGPVYPNAIDVGLTALKYAKNQGPPHYGDANKTILMGFSAGSHVAALTNAMGNNTEYLKTHGFGDSPLTSRLQVLGYPVIDLAAGFPKSREEAFKISPDEQYWASQNLVTDQTPPTFLWNTCADAVVPTMNSLLYAEALARHHVEYDIHTFTHGKHGLCLSTVETSRYNYPEDIEPRAANWVPLVLSWLSEMLD
protein production: failed

MMHYGVLALTFLSVNLDFFLMLVFLLKKYRLWQVLLGYLLGNLILLTASFFVGKALTLFLPEWLLGFLGVLPIWLAFHDDDDDTADRAGGSPVINVLVTYLAVCAGCNLSIFLPVLVGESMVHFVMTLGFIGILTMLVVLIINQVAEIKAVQKQIAAHGERLMKICYVVIGLYVFWDSGLISHLIAFL
protein production: failed

MNIGNITISVIIPVYNASVTLPHCLESLHKQTYRNLELLFVDDCSTDESLYILTSYAEQFAEIDFTIRILQHERNRGVAAARNTALKCATGDYIYYVDADDSIEPHTLECLVNEINHKGLDIVGHEWYLTFNSNARYMKQPAYTTSVEALRKMMGGVMRWNLWLFLVRRSLYVENDIRFTEGLNMGEDMMVMMKLFICAGKVGIVHRPFYHYRQSNPESLTKIYSQEHIIQVANNVYEVEKYVNASAYADSLIEFIPFLKLNIKLPLLITDDKSHYEQWLECFPEANCYVMNNKLLPLRTRIIQWMAVKRYFILLRLYYRTVFKLVYGIIYKLEHHHHHH
protein production: failed

MSLEERVKEIIAEQLGVEKEKITPEAKFVEDLGADSLDVVELIMAFEEEFGIEIPDEDAEKIQTVGDVINYLKEKVGG
protein production: not failed

MRIGVIGTGTIATAVVHGIAGDGHAITVSERSAANAQALAAAYPNVRVASNQVVVEECDILTLGLMAEQAPEILGPLPFRADQQVITLMAGATLEQVAQMVAPARAAAIMMPFPSIAQGGSPIMMQGDADLVAALFGARNRIFAVRDAAEMAAYLCAQAVLSPVARMVDDAAGWLATRVSDPVQGEAFLRALVASSLADTDSASLIEALNTPGGYNQRLRLHMEGAGMGDSLRAGLDALETGA
protein production: failed

MPLTDTALKALKPRDRIYSVADERGLSVEVYPTGGIVWRFRYRLAGRYEKLTLGKYPALSLRNARLKRDEAASLVAMGTSPARQKQLAKVTAADAMTVRDFAERFFREIQSRDRKDSTMPRRYLDKDILPFVGDKPMREVTAEEIRSLIWRKKEQGFDATAGQIRGVLKRLCDYAVTCGLMPTNPVLALPMRHVYKAVSRDRALSPDEIRLFLRAVWASRIRRQFKLALHLILLTMVRKSELLLARWDHVHLDQAQWHIPAEHSKTGKPHIVYLSRQAVVLFEALRVLAGGSALVMPGSGTLTRPFAHNALNHALGKAMQWQGIHAFTIHDLRRTASTWLHEHGWASDVVEKALNHSIGGVRGVYNRAEYADQRRQMLQCWADFIEKQLKTDHLLMVCHTELDGAKPGTP
protein production: failed

MELEQKLNLLNDLIVREIVNPLPPPYKVGVDLGTADIVLVVTDQEGIPVAGALKWASVVKDGLVVDYIGAIQIVRELKAKVERLLGSELFQAATAIPPGTVGRNAEACGHVVAGAGLELVTLVDEPVAAARALGINDGIVVDIGGGTTGIAVIEKGKITATFDEPTGGTHLSLVLAGSYKIPFEEAETIKKDFSRHREIMPVVRPVIEKMALIVKEVIKNYDQTLPVYVVGGTAYLTGFSEEFSRFLGKEVQVPIHPLLVTPLGIALFG
protein production: not failed

MQNLDRDVVIVGAGPSGLTAARELKKAGLSVAVLEARDRVGGRTWTDTIDGAMLEIGGQWVSPDQTVLMELLDELGLKMYSRYRDGESVYIGADGKRTQYTGDTFPVNETTKAEMDKLVAILDELAAEIGPTEPWAHPKARELDTISFHHWLRQNSNDEEACNNIGLFIAGGMLTKPAHAFSALQAVLMAASAGSFSHLTDEDFILDKRVIGGMQQVSLLQAAELGDDVVLNSPVRTIKWDENGVSVVSERATVNARFVIMAVPPNLYSRVSFDPPLPRRQHQMHQHQSLGLVIKVHAVYDTPFWREEGLSGTGFSAGALVQEVYDNTNHGDSRGTLVGFVSDEKADAVFELSAEDRKKAILESIAGFLGDKALTPEVYYESDWGSEEWTRGAYASSYDLGGLHRYGKDQHANVGPIYWSSSDLAAEGYQHVDGAVRMGQATAARIVEANKLASVPVA
protein production: not failed

MIFVLLICPLFIFIVSVIGTRKTKTYYVMPIVTFASFLIIGVIAFTPKFFFWVGMYSIFSFIVSYMTLLFVKGYEVAENAK
protein production: failed

GTVSATSPNKCKRPMNAFMLFAKKYRVEYTQMYPGKDNRAISVILGDRWKKMKNEERRMYTLEAKALAEEQKRLNPDCWK
protein production: not failed
